Test: soluble on expression in E. coli; label from the status in PepcDB or PDB records

| Sequence | soluble on expression in E. coli |
| --- | --- |
| MAGHVNGTCAPVIPKVGDEEDGVGQLVANLKEKGTNFVLLKKTPQILELQTILKDRFCGKINDFRYFCRKNLLILNKLLFCLKKRFSWNLDFKNPLIHKFSGQKRHFKRFCQIFSDFESKFRYFHKFPGPKRSTNHSDFVFNADRLMRLVIEECLNHLPFTEHTVTTPTGFKYEGIQFNRGNCGVSLCRSGEAMEVSLRQCCRCIRIGKILIGDEQKVLYARLLPDITSRRVLLLYPTIGSGTTVCKAIEVLKEARVPDENIYLVSLFISPTGLKNITRKYPYITVVASDITSLYPNHFSTSYFGAV | not soluble |
| MNIVSWKDANDEVAGGATTRREREVKEDQEETEVRATSGKTVIKKQPTSISSSSSSWMKSKDPRIVRVSRAFGGKDRHSKVCTLRGLRDRRVRLSVPTAIQLYDLQERLGVDQPSKAVDWLLDAAKEEIDELPPLPISPENFSIFNHHQSFLNLGQRPGQDPTQLGFKINGCVQKSTTTSREENDREKGENDVVYTNNHHVGSYGTYHNLEHHHHHHQHLSLQADYHSHQLHSLVPFPSQILVCPMTTSPTTTTIQSLFPSSSSAGSGTMETLDPRQMVSHFQMPLMGNSSSSSSQNISTLYSLLHGSSSNNGGRDIDNRMSSVQFNRTNSTTTANMSRHLGSERCTSRGSDHHM | soluble |
| MAHHHHHHMNVAKREFIRGMMAHYRASLPPPEHSVVIHELQKRVLDIGMLAVNKAHVELFGSHVSGFCTPHSDADISLTYRNFSPWLQGMERVDEQNNKRMTRFGKEASAMGMEDVRYIRARIPVVQFTDGVTGIHCDVSIGNIGGVENSKILCAIRQVFPDFYGAYIHLVKAWGKAREVIAPERSTFNSFTVTTMALMVLQELGLLPVFSKPTGEFGELTVADAEMLLQEFKLPPIYDSLHDDDEKLGEAVFFCLQRFAEYYAKYDFSAGTVSLIHPRRHRTVYERVVRRHLELLGSRKRLEWEKHIAEHKEDGPLDENDFSASMQNETTQRPSNSPYVVEDFVNYVNCGRRVQASRVRHIQQEFNRLREMLIDKESELKFDEVFRESDTVPRFQGFEGVGTRDHRVKTFRPQ | not soluble |
| NAVHFGAGNIGRGFIGKLLADAEVEVTFADVDVPLVDQLSHKQEYKVKVVGTECKIDTVTHVTAVNSASEDVIDRIVKTDLVTTAVGPNVLDIIAKTIAKGIAKRFEAGNDAPLNIIACENMVRGTTHLKGEVYKHLDKSLHAKADELVGFVDSAVDRIVPPAEAANDDPLEVTVESFSEWIVDEQQFKGDIPNIAGMEKTNN | soluble |
| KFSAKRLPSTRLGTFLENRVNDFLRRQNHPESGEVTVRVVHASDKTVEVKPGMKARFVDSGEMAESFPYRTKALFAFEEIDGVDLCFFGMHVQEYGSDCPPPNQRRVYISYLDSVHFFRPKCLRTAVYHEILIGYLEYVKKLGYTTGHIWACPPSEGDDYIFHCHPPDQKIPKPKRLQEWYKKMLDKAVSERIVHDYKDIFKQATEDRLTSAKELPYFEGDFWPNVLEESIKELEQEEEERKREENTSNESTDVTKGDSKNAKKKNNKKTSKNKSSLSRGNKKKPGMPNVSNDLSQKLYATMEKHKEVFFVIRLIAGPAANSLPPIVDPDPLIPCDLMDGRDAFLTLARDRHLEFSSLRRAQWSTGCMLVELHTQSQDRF | soluble |
| MAHHHHHHMDGGVVKTILRKGEGGEENAPKKGNEVTVHYVGKLESSGKVFDSSRERNVPFKFHLGQGEVIKGWDICVASMTKNEKCSVRLDSKYGYGEEGCGESIPGNSVLIFEIELISFREAKKSIYDYTNEEKIQAAFDLKEEGNDFFKKNEIDEAISKYKEALDLFIHAEDWDGDLAEKKKNIEIICNLNLSTCYNKSKDFPNAIAHASKVLKIEKNNVKALYKLGVANMHFGFLEVAKENLYKAASLSPNNVEIRNSYDACLSKLKEARKRDKLTFGGMFDKGI | not soluble |
| MTLLSPGIELKETTVQSTVVNNSTGTAALAGKFQWGPAFQIKQVTNEVDLVNTFGQPTAETADYFMSAMNFLQYGNDLRVVRAVDRDTAKNSSPIAGNIEYTISTPGSNYAVGDKITVKYVSDDIETEGKITEVDADGKIKKINIPTAKIIAKAKEVGEYPTLGSNWTAEISSSSSGLAAVITLGKIITDSGILLAEIENAEAAMTAVDFQANLKKYGIPGVVALYPGELGDKIEIEIVSKADYAKGASALLPIYPGGGTRASTAKAVFGYGPQTDSQYAIIVRRNDAIVQSVVLSTKRGGKDIYDSNIYIDDFFAKGGSEYIFATAQNWPEGFSGILTLSGGLSSNAEVTAGDLMEAWDFFADRESVDVQLFIAGSCAGESLETASTVQKHVVSIGDVRQDCLVLCSPPRETVVGIPVTRAVDNLVNWRTAAGSYTDNNFNISSTYAAIDGNYKYQYDKYNDVNRWVPLAADIAGLCARTDNVSQTWMSPAGYNRGQILNVIKLAIETP | soluble |

Source: the DeepSol protein solubility set
